The values below come from patent publication US20110008345A1 (GlaxoSmithKline, published 2011).

Experiment [1] has as its target T1, recombinant E. coli-expressed human IL-13 (human, UniProt P35225 35-146).
T1 construct: made and purified at GSK; also called Interleukin-13; rhIL-13
Description: SPR. (In general: In SPR one partner is held on a chip, and binding of the other changes the refractive index at the surface.)

For experiment [2], the target named is T2, recombinant E. coli-expressed human IL-4 (human, UniProt P05112 25-153).
T2 construct: made and purified at GSK; also called Interleukin-4; rhIL-4
T2 sequence: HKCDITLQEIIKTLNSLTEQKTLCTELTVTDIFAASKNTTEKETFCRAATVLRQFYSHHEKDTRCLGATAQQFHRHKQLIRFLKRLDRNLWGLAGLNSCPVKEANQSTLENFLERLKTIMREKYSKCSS
Kind of experiment: SPR.

Experiment [3] deals with T2, recombinant E. coli-expressed human IL-4. Kind of experiment: SPR, positive dissociation.
For experiment [4] the target is unchanged. Kind of experiment: SPR, purified.
For experiment [5], the target named is T1, recombinant E. coli-expressed human …. Description: SPR, purified.
Experiment [6] shares this target. Description: SPR exp 1.
Experiment [7] shares this target. Description: ELISA, IL-13 binding to IL13Ralpha2/Fc. A general note: ELISA stands for enzyme-linked immunosorbent assay.
Experiment [8] has as its target T2, recombinant E. coli-expressed human IL-4. Kind of experiment: cell-based or functional assay.
Experiment [9] addresses T3, recombinant E. coli-expressed cynomolgus IL-13 (cynomolgus, UniProt Q0PW92 21-132). Kind of experiment: cell-based or functional assay.
Experiment [10] deals with T4, recombinant E. coli-expressed cynomolgus IL-4 (cynomolgus, UniProt P79339 25-153).
T4 sequence (looked up): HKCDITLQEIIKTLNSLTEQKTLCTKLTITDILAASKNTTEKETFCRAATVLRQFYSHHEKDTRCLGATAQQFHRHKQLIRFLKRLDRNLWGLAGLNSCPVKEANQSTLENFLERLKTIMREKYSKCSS
Kind of experiment: cell-based or functional assay.

For experiment [11], the target named is T1, recombinant E. coli-expressed human …. Description: cell-based or functional assay.
Experiment [12] has as its target T2, recombinant E. coli-expressed human IL-4. Kind of experiment: SPR exp 2.
Experiment [13] has as its target T1, recombinant E. coli-expressed human …. Kind of experiment: SPR exp 2.
For experiment [14], the target named is T3, recombinant E. coli-expressed …. Kind of experiment: SPR.
Experiment [15] addresses T4, recombinant E. coli-expressed …. Description: SPR.
Experiment [16] concerns the target T2, recombinant E. coli-expressed human IL-4. Kind of experiment: ELISA.
Experiment [17] has as its target T5, RNAse A (UniProt P61823 27-150).
T5 sequence (looked up): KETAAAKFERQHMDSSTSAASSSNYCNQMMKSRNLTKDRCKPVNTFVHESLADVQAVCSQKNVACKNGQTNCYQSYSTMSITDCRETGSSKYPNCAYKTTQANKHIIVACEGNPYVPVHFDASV
Kind of experiment: ELISA.

Experiment [18] concerns the target T2, recombinant E. coli-expressed human IL-4. Description: cell-based or functional assay. This is another data set of the same source.
Experiment [19] concerns the target T1, recombinant E. coli-expressed human …. Kind of experiment: cell-based or functional assay. The source holds these as a separate data set.
Experiment [20] has the same target. Kind of experiment: SPR, human IL-4 bound first.
Experiment [21] has as its target T2, recombinant E. coli-expressed human IL-4. Kind of experiment: ELISA, IL-4 binding to IL4Ralpha-Fc.
For experiment [22], the target named is T1, recombinant E. coli-expressed human …. Kind of experiment: SPR, no IL-4 bound.
Experiment [23] shares this target. Kind of experiment: SPR. The source holds these as a separate data set.
Experiment [24] deals with T2, recombinant E. coli-expressed human IL-4. Description: SPR exp 2. This is another data set of the same source.
The target of experiment [25] is T1, recombinant E. coli-expressed human …. Description: SPR exp 2. This is another data set of the same source.
Experiment [26] deals with T3, recombinant E. coli-expressed …. Description: SPR. The source holds these as a separate data set.
The target is the same in experiment [27]. Kind of experiment: cell-based or functional assay. This is another data set of the same source.
The target of experiment [28] is T1, recombinant E. coli-expressed human …. Kind of experiment: cell-based or functional assay. The source holds these as a separate data set.
Experiment [29] addresses T2, recombinant E. coli-expressed human IL-4. Kind of experiment: SPR exp 1.
In experiment [30] the target is T1, recombinant E. coli-expressed human …. Kind of experiment: SPR exp 1. This is another data set of the same source.
Experiment [31] shares this target. Kind of experiment: ELISA.

Like-named read-outs stand apart in the source and are kept apart here.

B1: 586H-TVAAPS-147 (bispecific antibody, human IgG1, kappa)
heavy: not shown
light: DIVMTQSPLSLPVTPGEPASISCRSSQNIVHINGNTYLEWYLQKPGQSPRLLIYKISDRFSGVPDRFSGSGSGTDFTLKISRVEADDVGIYYCFQGSHVPWTFGQGTKLEIKRTVAAPSVFIFPPSDEQLKSGTASVVCLLNNFYPREAKVQWKVDNALQSGNSQESVTEQDSKDSTYSLSSTLTLSKADYEKHKVYACEVTHQGLSSPVTKSFNRGEC
Usually Kd stands for the free concentration of one partner at which half of the binding sites on the other are occupied at equilibrium, for simple one-to-one binding. Usually koff stands for a measure of how fast the partners let go of each other. Usually kon stands for a measure of how fast the partners come together. On to B1, for which the dissociation constant Kd in experiment [1] turned out to be 0.56 nM; in [3] it was 0.011 nM. The koff in experiment [2] worked out at 6.69e-07 s⁻¹. In experiment [2], the kon was found to be 66200 M⁻¹ s⁻¹.

B2: 586H-TVAAPS-154 (bispecific antibody, human IgG1, kappa)
heavy: not shown
light: DIVMTQSPLSLPVTPGEPASISCRSSQNIVHINGNTYLEWYLQKPGQSPRLLIYKISDRFSGVPDRFSGSGSGTDFTLKISRVEADDVGIYYCFQGSHVPWTFGQGTKLEIKRTVAAPSVFIFPPSDEQLKSGTASVVCLLNNFYPREAKVQWKVDNALQSGNSQESVTEQDSKDSTYSLSSTLTLSKADYEKHKVYACEVTHQGLSSPVTKSFNRGEC
Turning to B2, the Kd in [1] turned out to be 0.56 nM; in [4], 0.49 nM; in [5], 0.41 nM; in [3] it was 0.002 nM. The off-rate constant (koff) in experiment [2] came out at 1.15e-07 s⁻¹. Moreover, the on-rate (kon) in [2] stood at 64400 M⁻¹ s⁻¹.

B3: PascoH-TVAAPS-474 GS removed (bispecific antibody, human IgG1, kappa)
heavy: not shown
light: DIVLTQSPSSLSASVGDRVTITCKASQSVDYDGDSYMNWYQQKPGKAPKLLIYAASNLESGIPSRFSGSGSGTDFTFTISSLQPEDIATYYCQQSNEDPPTFGQGTKVEIKRTVAAPSVFIFPPSDEQLKSGTASVVCLLNNFYPREAKVQWKVDNALQSGNSQESVTEQDSKDSTYSLSSTLTLSKADYEKHKVYACEVTHQGLSSPVTKSFNRGEC
One may read the IC50 as the concentration that gives 50% inhibition. For the molecule B3, the Kd in experiment [6] was determined as 0.268 nM; in [12] it was 0.011 nM; in [13], 0.305 nM; in experiment [14], 26.7 nM; in experiment [15], 0.029 nM. Further, the IC50 in [7] stood at 7.41 nM. Further, the “Mean ND50 (TF-1)” value turned out to be 3.02 nM in experiment [8], 47.9 nM in experiment [9], 1.36 nM in experiment [10] and 2.11 nM in experiment [11]. Moreover, the koff worked out at 0.0129 s⁻¹ in experiment [14] and 5.3e-05 s⁻¹ in experiment [15]. Moreover, the kon in experiment [14] was found to be 483000 M⁻¹ s⁻¹; in [15], 1.83e+06 M⁻¹ s⁻¹.

B4: BPC1809 (bispecific antibody, human IgG1, kappa)
heavy: not shown
light: DIVLTQSPSSLSASVGDRVTITCKASQSVDYDGDSYMNWYQQKPGKAPKLLIYAASNLESGIPSRFSGSGSGTDFTFTISSLQPEDIATYYCQQSNEDPPTFGQGTKVEIKRTVAAPSVFIFPPSDEQLKSGTASVVCLLNNFYPREAKVQWKVDNALQSGNSQESVTEQDSKDSTYSLSSTLTLSKADYEKHKVYACEVTHQGLSSPVTKSFNRGEC
notes: also called Anti IL-4 heavy Chain-GS-anti RNAse A camelidVHH
As to B4, the binding result in experiment [16] and in experiment [17] was “binds” throughout.

B5: PascoH-474 GS removed (bispecific antibody, human IgG1, kappa)
heavy: not shown
light: DIVLTQSPSSLSASVGDRVTITCKASQSVDYDGDSYMNWYQQKPGKAPKLLIYAASNLESGIPSRFSGSGSGTDFTFTISSLQPEDIATYYCQQSNEDPPTFGQGTKVEIKRTVAAPSVFIFPPSDEQLKSGTASVVCLLNNFYPREAKVQWKVDNALQSGNSQESVTEQDSKDSTYSLSSTLTLSKADYEKHKVYACEVTHQGLSSPVTKSFNRGEC
For the molecule B5, the results for the “Mean IC50 (whole blood phospho-STAT6)” value in experiment [18] and in experiment [19] were 7.95 nM and 2.78 nM, respectively. Further, the equilibrium dissociation constant (Kd) in [6] came out at 0.331 nM; in experiment [20], 0.408 nM; in experiment [22], 0.425 nM; in [23] it was 0.423 nM; in experiment [12], 0.005 nM; in experiment [13], 0.351 nM. The dissociation constant (Kd) came to 16.6 nM in experiment [14] and 0.0342 nM in [15]. In addition, the koff in experiment [20] is 0.000231 s⁻¹; in experiment [22] it was 0.000259 s⁻¹; in experiment [23] it was 0.000266 s⁻¹; in experiment [14], 0.011 s⁻¹; in experiment [15], 6.38e-05 s⁻¹. Besides, the on-rate constant (kon) in experiment [20] is 566000 M⁻¹ s⁻¹; in [22] it was 609000 M⁻¹ s⁻¹; in experiment [23], 629000 M⁻¹ s⁻¹; in experiment [14], 662000 M⁻¹ s⁻¹; in experiment [15], 1.87e+06 M⁻¹ s⁻¹. For the same molecule, the figures for the IC50 in [21] and in experiment [7] were 5.14 nM and 9.58 nM, respectively. In addition, the “Mean ND50 (TF-1)” value in experiment [8] was 2.85 nM; in [9], 39.8 nM; in [10], 1.89 nM; in experiment [11], 2.27 nM.

B6: PascoH-TVAAPS-616 (bispecific antibody, human IgG1, kappa)
heavy: not shown
light: DIVLTQSPSSLSASVGDRVTITCKASQSVDYDGDSYMNWYQQKPGKAPKLLIYAASNLESGIPSRFSGSGSGTDFTFTISSLQPEDIATYYCQQSNEDPPTFGQGTKVEIKRTVAAPSVFIFPPSDEQLKSGTASVVCLLNNFYPREAKVQWKVDNALQSGNSQESVTEQDSKDSTYSLSSTLTLSKADYEKHKVYACEVTHQGLSSPVTKSFNRGEC
As to B6, in experiment [7], the 50% inhibitory concentration (IC50) was 6.17 nM. Also, the dissociation constant (Kd) stood at 0.005 nM in [24]; 0.056 nM in experiment [25]; 9.8 nM in experiment [26]; 0.003 nM in [29]; 0.0497 nM in experiment [30]. The koff in experiment [26] amounted to 0.00451 s⁻¹. In [26], the on-rate constant (kon) is 460000 M⁻¹ s⁻¹. In addition, the results for the “Mean ND50 (TF-1)” value in [27] and in experiment [28] were 14.5 nM and 0.722 nM, respectively.

B7: PascoH-616 (bispecific antibody, human IgG1, kappa)
heavy: not shown
light: DIVLTQSPSSLSASVGDRVTITCKASQSVDYDGDSYMNWYQQKPGKAPKLLIYAASNLESGIPSRFSGSGSGTDFTFTISSLQPEDIATYYCQQSNEDPPTFGQGTKVEIKRTVAAPSVFIFPPSDEQLKSGTASVVCLLNNFYPREAKVQWKVDNALQSGNSQESVTEQDSKDSTYSLSSTLTLSKADYEKHKVYACEVTHQGLSSPVTKSFNRGEC
For B7, the 50% inhibitory concentration (IC50) in experiment [7] was determined as 6.41 nM. Further, the dissociation constant (Kd) was determined as 0.15 nM in experiment [25], 5.4 nM in [26], 0.00172 nM in experiment [29] and 0.114 nM in experiment [30]. Moreover, in [26], the off-rate (koff) turned out to be 0.00184 s⁻¹. Further, the on-rate constant (kon) in experiment [26] worked out at 341000 M⁻¹ s⁻¹. Besides, the “Mean ND50 (TF-1)” value turned out to be 9.23 nM in experiment [27] and 0.796 nM in [28].

B8: PascoL-ELQLE-474 (bispecific antibody, human IgG1, kappa)
heavy: not shown
light: DIVLTQSPSSLSASVGDRVTITCKASQSVDYDGDSYMNWYQQKPGKAPKLLIYAASNLESGIPSRFSGSGSGTDFTFTISSLQPEDIATYYCQQSNEDPPTFGQGTKVEIKRTVAAPSVFIFPPSDEQLKSGTASVVCLLNNFYPREAKVQWKVDNALQSGNSQESVTEQDSKDSTYSLSSTLTLSKADYEKHKVYACEVTHQGLSSPVTKSFNRGECELQLEESCAEAQDGELDGGSGVQLLESGGGLVQPGGSLRLSCAASGFTFAWYDMGWVRQAPGKGLEWVSSIDWHGEVTYYADSVKGRFTISRDNSKNTLYLQMNSLRAEDTAVYYCATAEDEPGYDYWGQGTLVTVSS
Take B8: the binding result in [16] and in [31] was “binds” each time.
